Legend:
[1] = Encapsulation yield by spectrophotometry after dissolution of the particles; format: physicochemical; details: Example 1 particles; percentage of compound initially used that is detected in the particles; upper limit of detection 98%
Method: A second evaluation method measures the encapsulation yield. The encapsulation yield is measured directly on the particles, and represents the percentage of the compound of interest initially used in the encapsulation method that is detected in the particles. The measurement is performed by spectrophotometry by means of a Thermoscientific Genesys 180 device after dissolution of the particles. Based on the detection limits of the device, the upper limit of encapsulation yield is noticed to be 98%, meaning that approximately 2% is not detected. This also means that an encapsulation yield of 98% indicates a very good encapsulation of the compound of interest.
For the measurement of the encapsulation yield, the protein pork haemoglobin was used as compound of interest for encapsulation. The encapsulation yield for pork haemoglobin was up to 98%, indicating a very high encapsulation yield.

[2] = Encapsulation efficiency by spectrophotometry of the second aqueous solution after separation of the particles; format: physicochemical; details: Example 1 particles (Eudragit S100 matrix, oleic acid shell); typical detection limit 2 w %
Method: The encapsulation efficiency has been measured through spectrophotometry measurement by means of a Thermoscientific Genesys 180 device. The encapsulation efficiency is measured by measuring the percentage of compound of interest in the second aqueous solution after separation of the obtained particles. The percentage is a weight percentage, i.e. the mass of compound in relation to the total mass of the second aqueous solution. Given the high mass of second aqueous solution in relation to the mass of the compound of interest, only significant amounts of compound of interest are detected. A typical detection limit is 2 w %. If no compound of interest is detected in the second aqueous solution after separation of the obtained particles, it means that no to very low quantities of compound of interest are present in the second aqueous solution, and that the encapsulation can be considered to have been efficient. Detection of the compound of interest indicates less efficient encapsulation. The larger the amount of compound of interest detected, the less efficient was the encapsulation.
For the measurement of the encapsulation efficiency, the protein pork haemoglobin was used as compound of interest for encapsulation.

## pork haemoglobin
[1]
  encapsulation yield: up to 98%
[2]
  encapsulation efficiency: compound of interest detected in the second aqueous solution after separation of the obtained particles: No traces

Reference: patent US20230355534A1, “METHOD TO ENCAPSULATE AN AQUEOUS SOLUTION COMPRISING A COMPOUND OF INTEREST IN A MATRIX” (SECOYA TECHNOLOGIES, priority 2020, published 2023)
